Test results as given in paper PMC3119699, “Characterizing the Role of Cell-Wall β-1,3-Exoglucanase Xog1p in Candida albicans Adhesion by the Human Antimicrobial Peptide LL-37” (PLoS ONE, 2011).
No end group written: not given here.

B1: biotinylated LL-37 (BA-LL37) (peptide)
peptide: LLGDFFRKSKEKIGKEFKRIVQRIKDFLRNLVPRTES
modifications: also: biotinylated (site not given here)
notes: LL-37, the mature 37-residue C-terminal peptide cut from human cathelicidin by proteinase-3; biotinylated; Detected or captured by its biotin (SA-HRP, SA-DTAF, streptavidin-agarose); source: synthetic peptide (MDBio, Inc.), 95% pure

Experiments:
[1] = molecular target: T1, Xog1p, cell-wall β-1,3-exoglucanase of C. albicans (endogenous) (C. albicans (endogenous in SC5314)) (UniProt P29717)
T1 sequence: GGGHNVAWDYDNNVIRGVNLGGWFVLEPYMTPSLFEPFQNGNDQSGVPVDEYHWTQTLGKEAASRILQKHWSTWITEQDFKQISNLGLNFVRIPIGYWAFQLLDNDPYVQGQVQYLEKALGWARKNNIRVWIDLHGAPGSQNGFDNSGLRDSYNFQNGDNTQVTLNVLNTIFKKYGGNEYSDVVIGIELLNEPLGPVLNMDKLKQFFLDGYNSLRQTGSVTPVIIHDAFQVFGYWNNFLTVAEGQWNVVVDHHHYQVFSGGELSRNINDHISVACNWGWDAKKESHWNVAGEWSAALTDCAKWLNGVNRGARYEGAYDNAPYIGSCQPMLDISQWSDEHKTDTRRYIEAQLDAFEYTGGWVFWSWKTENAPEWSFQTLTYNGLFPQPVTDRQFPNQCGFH

[2] = molecular target: T2, Xog1_(90–115) (residues 90–115 from Xog1p) (C. albicans); test: ELISA; Xog1_(90–115) (5 µg) coated on wells; BA-LL37 0.01–5 µg/ml in 0.1% TBST, room temperature 1 h; SA-HRP, A450; details: both partners purified
T2 construct: Residues 90–115 of C. albicans cell-wall β-1,3-exoglucanase Xog1p; also called Xog1p_(90–115); source: synthetic peptide (MDBio, Inc.)
T2 peptide: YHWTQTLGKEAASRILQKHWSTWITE

[3] = molecular target: T3, soluble His-tagged recombinant Xog1p (rXog1p) (C. albicans, UniProt P29717 41-438); test: pull-down; streptavidin-agarose, BA-LL37 (bait) and purified rXog1p in TBS, room temperature 2 h; six washes with TBS; Tricine SDS-PAGE, Coomassie Blue; details: both partners purified
T3 construct: An initiator Met comes from the NdeI site; No tag removal is described; also called full-length rXog1p; not shown: His tag (detected with anti-His6)
T3 sequence: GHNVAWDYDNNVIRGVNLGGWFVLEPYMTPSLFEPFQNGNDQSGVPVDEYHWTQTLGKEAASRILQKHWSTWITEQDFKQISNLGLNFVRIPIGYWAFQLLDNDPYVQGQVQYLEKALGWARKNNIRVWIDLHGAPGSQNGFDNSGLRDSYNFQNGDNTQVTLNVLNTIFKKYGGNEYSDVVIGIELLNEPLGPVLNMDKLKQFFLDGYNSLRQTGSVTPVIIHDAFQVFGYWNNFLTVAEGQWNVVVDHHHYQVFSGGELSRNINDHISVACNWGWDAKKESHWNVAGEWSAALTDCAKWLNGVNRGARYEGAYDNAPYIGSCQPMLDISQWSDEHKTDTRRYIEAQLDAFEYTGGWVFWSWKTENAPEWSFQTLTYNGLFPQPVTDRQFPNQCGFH

Binder | inhibition of C. albicans adhesion to polystyrene (XTT reduction) at 5 µg/ml (∼1.1 µM) LL-37 [1] | binding result [2] | binding result [3]
LLGDFFRKSKEKIGKEFKRIVQRIKDFLRNLVPRTES [LL-37 (human cathelicidin antimicrobial peptide)] | 70% | – | –
B1 | – | binds | binds
